According to patent publication US20200407723, “APTAMER BASED AFFINITY CAPTURE METHODS FOR THE SELECTIVE ENRICHMENT OF HUMAN IMMUNOGLOBULIN FC DOMAINS” (Waters Technologies Corporation, published 2020):

Tests used:
[1] = biological target: NISTmAb humanized IgG1 (Fc domain) (UniProt P01857-1 P01857-1:99-330); test: pulldown; from rat plasma, 12.5 ug aptamer, about 85% of 100 ug recovered, purity 10.6% to 72.4%; bound mAb to plasma protein ratio near 7:3; retained in 5 mM CaCl2 Tris; settings: chain copies: 2; label: 5'-biotin
Description: 280 nm, Em. 370 nm) and re-calculated according to the chromatographic purity assessment. […] After purification, about 85% of the spiked NIST mAb was recovered with purity increasing from 10.6% to 72.4%.
The small portion of impurity in the purified NIST mAb eluate was determined to be the non-specific binding of rat plasma endogenous proteins to the aptamer. The competition in binding between NIST mAb and plasma protein was investigated by loading 20 μL of rat plasma containing 50 μg of NIST mAb onto an increasing amount of immobilized aptamer (5 μg, 12.5 μg, 25 μg). The result of this experiment is summarized in FIG. 8D-E. From which, it is possible to observe that the binding ratio of NIST mAb to plasma protein is close to 7:3 (from UV measurement) for the current experimental approach.
To test out this optional protocol step, 20 μL of plasma and 25 μg of NIST mAb were diluted with binding buffer to 200 μL then loaded onto 40 μL of streptavidin resin wherein 5 μg of aptamer was non-covalently immobilized. […] Herein, the second washing and elution fractions were collected and analyzed by LC-UV analysis. […]

bovine serum albumin = bovine serum albumin (Bos taurus, UniProt P02769 P02769:25-607); test: pulldown; negative control; negligible non-specific binding in Tris with Mg2+; high non-specific binding with Zn2+, especially without NaCl; settings: tags: Sigma-Aldrich; label: 5'-biotin
bovine serum albumin, sequence (P02769 25-607, one chain of several): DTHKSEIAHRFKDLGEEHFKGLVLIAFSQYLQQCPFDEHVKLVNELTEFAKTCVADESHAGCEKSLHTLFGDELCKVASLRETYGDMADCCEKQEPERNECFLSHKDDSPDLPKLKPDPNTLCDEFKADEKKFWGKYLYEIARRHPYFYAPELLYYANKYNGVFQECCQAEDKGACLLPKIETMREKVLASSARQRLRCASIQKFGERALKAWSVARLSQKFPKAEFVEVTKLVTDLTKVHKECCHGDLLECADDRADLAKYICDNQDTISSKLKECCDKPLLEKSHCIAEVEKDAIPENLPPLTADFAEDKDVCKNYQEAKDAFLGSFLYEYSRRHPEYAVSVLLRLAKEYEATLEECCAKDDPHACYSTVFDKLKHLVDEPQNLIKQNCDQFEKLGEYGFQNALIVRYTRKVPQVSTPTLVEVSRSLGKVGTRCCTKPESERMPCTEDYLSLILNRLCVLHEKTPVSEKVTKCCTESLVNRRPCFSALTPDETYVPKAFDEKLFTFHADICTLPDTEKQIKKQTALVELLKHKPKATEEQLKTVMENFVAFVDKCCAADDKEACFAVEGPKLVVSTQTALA
Description: A positive pressure manifold (commercially available from Waters Technologies Corporation, Milford, Mass.) was utilized to drive flow through the filter plate. The amount of aptamer immobilized was determined by abosorbance at 260 nm using a DS-11 spectrophotometer (commercially available from DeNovix Inc., Wilmington, Del.). This non-covalently immobilized aptamer affinity resin was used to perform the affinity capture of 100 μg human IgG (IgG from human serum, commercially available from Sigma-Aldrich (now MilliporeSigma), St. Louis, Mo.) contained within 200 μL of several different binding buffers (specified below). After 1 hour of mixing, the resin was washed with two repeated 200 μL volumes to remove any unbound protein. Combined hIgG flow-through and washing fractions were saved to determine the amount of hIgG breakthrough. […] The eluate was saved for hIgG recovery measurements using a fluorescence plate reader (Ex. 280 nm, Em. 370 nm; Gemini™ XPS plate reader, commercially available from Molecular Devices, San Jose, Calif.).
The presence of divalent cations in the binding buffer has the potential to facilitate the activation of the aptamer affinity motif, yet it could also instigate non-specific binding. […] After binding and washing steps, captured proteins were eluted with elution buffer and protein recovery in each eluate was measured using a fluorescence plate reader.

B1: anti-human Fc 23-nt aptamer SEQ ID NO 1 (mixed)
RNA: GGAGGUGCUCCGAAAGGAACUCC
modifications: 2'-F U at 6, 9, 21; 2'-F C at 20; ribonucleotides at A3, G4, G5, G7, G16, G17; all other positions deoxyribonucleotides
[1]
  binding result: binds
Bovine serum albumin
  binding result: no binding
